Assay results published in patent US20240327530A1 (ICHNOS SCIENCES, published 2024).

T1: Recombinant mouse IL-1RAP Fc fusion protein (Sino Biologicals, catalog no. 52657-M02H) (mouse, UniProt Q61730 21-350)
T1 construct: Bought; not shown: Fc part of the bought fusion protein
T1 sequence: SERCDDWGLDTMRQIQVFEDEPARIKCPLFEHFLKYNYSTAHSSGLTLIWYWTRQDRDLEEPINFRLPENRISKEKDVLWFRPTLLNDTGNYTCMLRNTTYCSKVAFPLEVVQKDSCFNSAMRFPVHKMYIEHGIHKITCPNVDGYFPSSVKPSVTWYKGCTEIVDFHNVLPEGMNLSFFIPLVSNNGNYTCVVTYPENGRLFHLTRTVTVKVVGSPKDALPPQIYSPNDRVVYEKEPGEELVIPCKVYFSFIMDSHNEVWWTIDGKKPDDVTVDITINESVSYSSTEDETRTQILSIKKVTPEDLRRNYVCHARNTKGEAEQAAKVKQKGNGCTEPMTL

T2: Recombinant cynomolgus monkey IL-1RAP-ECD(S21-E359)-avi-his protein (cynomolgus monkey, UniProt P59822 21-359 (rhesus entry))
T2 construct: also called cyno IL-1RAP-ECD-Avi-His; recombinant cynomolgus monkey IL-1RAP-avi-his protein
T2 sequence: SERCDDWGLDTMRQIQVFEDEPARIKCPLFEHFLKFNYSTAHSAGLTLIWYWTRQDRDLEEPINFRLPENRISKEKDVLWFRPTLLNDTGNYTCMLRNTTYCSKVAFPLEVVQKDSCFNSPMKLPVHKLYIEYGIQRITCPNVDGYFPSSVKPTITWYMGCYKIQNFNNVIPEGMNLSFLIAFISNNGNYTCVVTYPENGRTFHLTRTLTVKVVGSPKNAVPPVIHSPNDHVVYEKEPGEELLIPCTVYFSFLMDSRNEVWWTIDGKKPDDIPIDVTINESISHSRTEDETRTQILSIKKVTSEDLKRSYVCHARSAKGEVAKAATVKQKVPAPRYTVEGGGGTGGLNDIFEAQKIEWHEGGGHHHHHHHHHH

T3: Recombinant human IL-1RAP Fc fusion protein (Acrobiosystems, catalog no. ILP-H5256) (human, UniProt Q9NPH3 21-359, limits assumed)
T3 construct: Bought; not shown: Fc part of the bought fusion protein
T3 sequence: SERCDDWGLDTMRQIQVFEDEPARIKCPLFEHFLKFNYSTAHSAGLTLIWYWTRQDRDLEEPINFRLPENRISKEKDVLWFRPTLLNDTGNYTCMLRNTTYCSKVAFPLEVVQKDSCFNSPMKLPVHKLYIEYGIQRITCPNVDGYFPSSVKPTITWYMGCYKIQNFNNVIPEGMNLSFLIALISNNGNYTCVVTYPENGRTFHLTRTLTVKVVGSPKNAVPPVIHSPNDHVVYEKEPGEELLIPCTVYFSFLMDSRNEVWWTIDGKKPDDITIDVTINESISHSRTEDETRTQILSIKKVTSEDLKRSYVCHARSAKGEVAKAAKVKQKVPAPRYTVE


Columns and labels:
[1] = biological target: T1, Recombinant mouse IL-1RAP Fc fusion …; experiment: SPR, mouse IL-1RAP-Fc captured, Fab as analyte
Experimental: (§1) Surface plasmon resonance (SPR) was used to measure the binding affinities of the Fab fragments for human, cynomolgus monkey and/or mouse IL-1RAP. Affinities were measured on a BIACORE™ T200 instrument (BIACORE™, GE […]®) at 25° C. and analyzed with the BIACORE™ T200 Evaluation Software (v3.1). Measurements were performed on Series S CM5 sensor chips (BIACORE™ T200, BIACORE™, GE […]®, catalog no. BR100530) coupled with anti-human IgG Fc (BIACORE™, GE […]®, catalog no. BR100839) using a commercial amine coupling kit (BIACORE™, GE […]®, catalog no. BR100050) or on Series S BiotinCAPture chips (BIACORE™, GE […]®, catalog no. 28920234). SPR measurements were performed with commercially available recombinant human IL-1RAP Fc fusion protein (Acrobiosystems, catalog no. ILP-H5256) and recombinant mouse IL-1RAP Fc fusion protein (Sino Biologicals, catalog no. 52657-M02H) or with biotinylated recombinant cynomolgus monkey IL-1RAP-avi-his protein produced in-house (SEQ ID NO. 2).
(§2) The affinities to human, cynomolgus monkey and mouse IL-1RAP were assessed by immobilizing IL-1RAP and using Fab fragments as analyte. Around 100 RU of human or mouse IL-1RAP Fc fusion protein were captured on fc2 of a Series S CM5 sensor chip coupled with anti-human IgG Fc and around 150 RU of biotinylated cynomolgus monkey IL-1RAP protein were captured on fc2 of a Series S BiotinCAPture chip. Fab fragments were injected in single cycle kinetic at different concentrations ranging from 7.8 to 500 nM, in HBS-EP+ buffer (BIACORE™, GE […]®, catalog no. BR100669) at a flow rate of 30 μl/min for 3 min on fc1 and fc2 (fc1 being used as reference). Dissociation was monitored for 5 min. After each cycle, the surface was regenerated with 60 μl of regeneration solution provided with anti-human IgG Fc capture kit (BIACORE™, GE […]®, catalog no. BR100839) or BiotinCAPture kit (BIACORE™, GE […]®, catalog no. 28920234) respectively. Experimental data were processed using the 1:1 Langmuir kinetic fitting model. Measurements included zero-concentration samples for referencing. Chi², U- and residual values were used to evaluate the quality of a fit between the experimental data and individual binding models.

[2] = biological target: T2, Recombinant cynomolgus monkey …; experiment: SPR, biotinylated cyno IL-1RAP-avi-his captured, Fab as analyte, 1:1 fit
Experimental: as §1, §2

[3] = biological target: T3, Recombinant human IL-1RAP Fc fusion …; experiment: SPR, human IL-1RAP-Fc captured, Fab as analyte, 1:1 fit
Experimental: as §1, §2

Binder | binding result [1] | Kd [2] [nM] | Kd [3] [nM]
Anti-IL-1RAP-UCP02-A4-Fab (Fab, V domains shown) VH: QVQLVQSGAEVKKPGSSVKVSCKASGGVFSYYAISWVRQAPGQGLEWMGAIIPDFGHTIYAQKFQGRVTITADESTSTAYMELSSLRSEDTAVYYCARASPYKGWWDYWGQGTLVTVSS VL: not shown | no binding (tested: 7.8 to 500 nM Fab) | 103 | 84.3
Anti-IL-1RAP-UCP02-D2-Fab (Fab, V domains shown) VH: QVQLVQSGAEVKKPGSSVKVSCKASGGRFSDSAIHWVRQAPGQGLEWMGYILPQFGAPLYAQKFQGRVTITADESTSTAYMELSSLRSEDTAVYYCARGSYYGVVGYVPDDYWGQGTLVTVSS VL: not shown | no binding (tested: 7.8 to 500 nM Fab) | 50.9 | 49
Anti-IL-1RAP-UCP02-G11-Fab (Fab, V domains shown) VH: QVQLVQSGAEVKKPGSSVKVSCKASGGQFNDYAIHWVRQAPGQGLEWMGYIIPAYGQAEYAQKFQGRVTITADESTSTAYMELSSLRSEDTAVYYCARVPYSTAYFDYWGQGTLVTVSS VL: not shown | no binding (tested: 7.8 to 500 nM Fab) | 345 | 260
Anti-IL-1RAP-UCP02-C8-Fab (Fab, V domains shown, also called anti-IL-1RAP-C8; anti-IL-1RAP-C8 Fab) VH: QVQLVQSGAEVKKPGSSVKVSCKASGGQFSEYAIQWVRQAPGQGLEWMGYIIPLHGQVDYAQKFQGRVTITADESTSTAYMELSSLRSEDTAVYYCARGQTLYDSGRQFDIWGQGTLVTVSS VL: not shown | no binding (tested: 7.8 to 500 nM Fab) | 2.2 | 2.2
Anti-IL-1RAP-UCP02-H8-Fab (Fab, V domains shown) VH: QVQLVQSGAEVKKPGSSVKVSCKASGGVFSGYAISWVRQAPGQGLEWMGGIIPEFGATNYAQKFQGRVTITADESTSTAYMELSSLRSEDTAVYYCARHSSAYSPWFDYWGQGTLVTVSS VL: not shown | no binding (tested: 7.8 to 500 nM Fab) | 297 | 328
Anti-IL-1RAP-UCP02-H9-Fab (Fab, V domains shown) VH: QVQLVQSGAEVKKPGSSVKVSCKASGGPFSSYALSWVRQAPGQGLEWMGGIIPHHGATYYAQKFQGRVTITADESTSTAYMELSSLRSEDTAVYYCARHPDVYTPWFDVWGQGTLVTVSS VL: not shown | no binding (tested: 7.8 to 500 nM Fab) | 682 | 907
Anti-IL-1RAP-UCP02-C9-Fab (Fab, V domains shown) VH: QVQLVQSGAEVKKPGSSVKVSCKASGGVFSYYAFHWVRQAPGQGLEWMGGIIPGYGATFYAQKFQGRVTITADESTSTAYMELSSLRSEDTAVYYCARPVSYSSGWYDYWGQGTLVTVSS VL: not shown | no binding (tested: 7.8 to 500 nM Fab) | 27.8 | 35.6
Anti-IL-1RAP-UCP02-G3-Fab (Fab, V domains shown) VH: QVQLVQSGAEVKKPGSSVKVSCKASGGYLNEYAIHWVRQAPGQGLEWMGAVIPRYGQTYYAQKFQGRVTITADESTSTAYMELSSLRSEDTAVYYCARPLGYSYGWFDYWGQGTLVTVSS VL: not shown | no binding (tested: 7.8 to 500 nM Fab) | 296 | 230
Anti-IL-1RAP-UCP02-C5-Fab (Fab, V domains shown) VH: QVQLVQSGAEVKKPGSSVKVSCKASGGHFNIYAISWVRQAPGQGLEWMGYIIPSLGAVDYAQKFQGRVTITADESTSTAYMELSSLRSEDTAVYYCARASIYHGWMAYWGQGTLVTVSS VL: not shown | no binding (tested: 7.8 to 500 nM Fab) | 334 | 368
Anti-IL-1RAP-UCP03-F4-Fab (Fab, V domains shown) VH: QVQLVQSGAEVKKPGSSVKVSCKASGGGFSEYAIHWVRQAPGQGLEWMGAILPEQGAAYYAQKFQGRVTITADESTSTAYMELSSLRSEDTAVYYCARVGLYVPYMDIWGQGTLVTVSS VL: not shown | no binding (tested: 7.8 to 500 nM Fab) |  | 888
